Data on three molecules can be found in publication PMC9918506, “Structural insights into pathogenic mechanism of hypohidrotic ectodermal dysplasia caused by ectodysplasin A variants” (Nature Communications, 2023).

Sequences and labels used below:
B1: EDA·A1 TNF homology domain (EDA·A1THD, residues 233–391), wild type (domain or fragment, human, UniProt Q92838 233-391, looked up)
chain: GPSGAADKAGTRENQPAVVHLQGQGSAIQVKNDLSGGVLNDWSRITMNPKVFKLHPRSGELEVLVDGTYFIYSQVEVYYINFTDFASYEVVVDEKPFLQCTRSIETGKTNYNTCYTAGVCLLKARQKIAVKMVHADISINMSKHTTFFGAIRLGEAPAS
notes: ectodysplasin A, splice form EDA·A1 (with Val307-Glu308), human, THD residues 233-391; Optimized cDNA in pMAL-c2x; MBP removed with 3C protease; Trimer in the crystal structure; also called WT EDA·A1THD; ectodysplasin A THD; source: E. coli BL21 CodonPlus (DE3), purified (amylose, Superdex 200, 3C cleavage, Mono-S, Superdex 200); not shown: MBP, N-terminal, cleaved

Data set [1] concerns the molecule itself. Kind of data set: crystal structure; EDA·A1THD and EDAR_(CRDS) mixed at a molar ratio of 1:1; crystals in 25% PEG-6000, 0.1 M BICINE pH 9.0, 4 °C; 2.8 Å.
Data set [2] addresses T1, EDA·A1 TNF homology domain (EDA·A1THD, residues 233-391) (human, UniProt Q92838 233-391).
T1 construct: ectodysplasin A, splice form EDA·A1, human, TNF homology domain, residues 233-391; MBP removed with 3C protease; codon-optimised cDNA in pMAL-c2x; Trimer in the crystal structure; also called EDATHD; ectodysplasin A; source: E. coli BL21 CodonPlus (DE3), purified (amylose beads, Superdex 200, Mono-S, Superdex 200 increase); not shown: MBP, N-terminal, cleaved
T1 sequence (looked up): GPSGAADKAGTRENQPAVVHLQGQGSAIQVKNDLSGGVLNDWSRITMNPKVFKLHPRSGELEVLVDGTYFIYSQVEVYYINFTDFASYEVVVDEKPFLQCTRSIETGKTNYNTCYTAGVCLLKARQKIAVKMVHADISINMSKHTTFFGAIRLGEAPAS
Kind of data set: SEC; gel filtration on a Superdex 200 analytical column, fractions on SDS-PAGE; EDA·A1THD alone, EDAR_(CRDS) alone and the mixture. The conditions noted are these: both partners purified. (SEC sorts molecules by how far they enter the pores of the column.)

The target of data set [3] is EDA·A1THD (residues 233–391) R276C (human, UniProt Q92838 233-391, R276C). Briefly: SPR.
Data set [4] addresses B1. Kind of data set: SPR; WT and mutant EDA·A1THD immobilised on CM5 chips, EDAR_(CRDS) serially diluted and injected; Biacore 8K; 10 mM HEPES pH 7.5, 150 mM NaCl, 3 mM EDTA, 25 °C; steady-state analysis at equilibrium. The conditions noted are these: both partners purified.

As a reminder, the stoichiometry N is the number of molecules, sites or subunits per partner or assembly. One may read the Kd as a measure of binding affinity in units of concentration. Low values mean tighter binding, high ones weaker binding.

Turning to B1, the “stoichiometry N” value in data set [1] is 3.

B2: EDAR cysteine-rich domains (EDAR_(CRDS), residues 30-150) (domain or fragment, human, UniProt Q9UNE0 30-150, looked up)
chain: NCGENEYYNQTTGLCQECPPCGPGEEPYLSCGYGTKDEDYGCVPCPAEKFSKGGYQICRRHKDCEGFFRATVLTPGDMENDAECGPCLPGYYMLENRPRNIYGMVCYSCLLAPPNTKECVG
notes: EDAR, human, N-terminal cysteine-rich domains, residues 30-150; MBP removed with 3C protease; also called EDAR ectodomain; source: Hi5 insect cells (baculovirus), secreted, purified (amylose beads, Mono-Q, Superdex 200); not shown: MBP, N-terminal, cleaved
B2: in data set [2], the binding result was “binds”.

B3: EDAR cysteine-rich domains (EDAR_(CRDS), residues 30–150), MBP tag removed (domain or fragment, human)
chain: GGSGGSGGSGGSNCGENEYYNQTTGLCQECPPCGPGEEPYLSCGYGTKDEDYGCVPCPAEKFSKGGYQICRRHKDCEGFFRATVLTPGDMENDAECGPCLPGYYMLENRPRNIYGMVCYSCLLAPPNTKECVG
notes: EDAR (ectodysplasin A receptor), human, cysteine-rich domains CRD1-CRD3, residues 30-150; Construct: EDAR signal peptide (residues 1-28), MBP, 3C site, linker, EDAR 30-150; That the linker stays on the protein after 3C cleavage follows only from the order in which the methods list the elements; also called ectodomains of EDAR; source: Hi5 insect cells (baculovirus), secreted, purified (amylose, …)
In the case of B3, the Kd was found to be 35.9 nM in data set [3] and 18.5 nM in data set [4].
